The data set has as its target T1, rOxyR (Porphyromonas gingivalis 33277?) (UniProt B2RHP2).
T1 sequence: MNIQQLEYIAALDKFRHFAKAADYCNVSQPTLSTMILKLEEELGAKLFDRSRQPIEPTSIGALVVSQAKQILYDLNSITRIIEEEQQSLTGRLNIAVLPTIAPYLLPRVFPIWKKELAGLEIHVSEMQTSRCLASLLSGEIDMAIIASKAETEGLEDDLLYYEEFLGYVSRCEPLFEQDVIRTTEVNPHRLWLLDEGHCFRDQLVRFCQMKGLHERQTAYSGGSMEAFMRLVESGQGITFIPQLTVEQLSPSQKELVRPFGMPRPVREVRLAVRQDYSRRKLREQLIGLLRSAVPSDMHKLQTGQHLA
The experiment in a line: EMSA.

In the case of “CGTCTTACCGGCTTCCCTATAGCAAAGGAAAGCATTTTTTTCTACTAAAAATTAATTCTAACAATATTCTGCTGTCTTCTACGTGTTTATACGCAGAAAAACGAAAAAAAACCGCACTACTCAATAAAAAAAACGCGATATTGACCCTCGCGAGAG (double strand) [mfa1 promoter region]”, the binding entry is reported as “no binding”.

With “CTTTTCGCCCGAAGGTTTTATCTTCCGGCCGGAGCTTTCGGATGAGATCAACTACCTTTTCGTCATGGAATGAATCGGTTTTTACGACCAAGATTCGAACCTTTTTCCGTTCATCATGTTCTTATAATGATTAAAAAGTTGTCGGTGTCGGTTTTACACTGCTCCGATACAAATTATTAAAAGACTTAATTACAATAAAAATCAGACGTT (double strand) [sod promoter region]”, the binding result was “binds”.

Source of the values: article PMC2430334.
